We go through two molecules from patent US20110064740A1 (GlaxoSmithKline, published 2011).

Ends that are not written are not given here. * marks the point of attachment. Biotin = O=C1N[C@H]2[C@H](CS[C@H]2CCCCC(=O)*)N1

The target in experiment [1] is T1, human Aβ peptide (1-40) biotinylated at the C terminus (human, UniProt P05067 672-711, biotinylated at the C-terminus).
T1 construct: domain: β-amyloid peptide (1-40); Numbers 1-40 count on the β-amyloid peptide, not on APP; also called beta-amyloid 1-40 peptide (biotinylated at the C-terminus); streptavidin-captured beta-amyloid (1-40)
The experiment is described as follows: SPR Biacore 3000, Method A(i): C-terminally biotinylated β-amyloid 1-40 on streptavidin chip, antibody as analyte; Average(SD) of two runs. How it is done: (§1) (i) Briefly, <20 resonance units of beta-amyloid 1-40 peptide (biotinylated at the C-terminus) were captured on a streptavidin biosensor chip (as used for Table 10A). The antibodies were diluted down in HBS-EP buffer and passed over the streptavidin/beta-amyloid surface at concentrations ranging from 0.001 nM-8 nM (for Table 10A). Two separate runs were carried out; each run was carried out on a new streptavidin/beta-amyloid surface. Runs 1 and 2 were essentially the same though there were some differences in the parameters used; Run 1 was carried out using a chip surface on which 16 RU's of beta-amyloid were captured, and antibody concentrations of 0.001 nM-8 nM were used, an association time of 4 minutes and a dissociation time of 20 minutes were used at a flow rate of 50 μl per minute. For Run 2, less than 10 RU's of beta-amyloid were captured and antibody concentrations of 0.003125 nM-8 nM were used. The flow rate and association times were the same as Run 1, however the dissociation time was reduced to 15 minutes. (ii) Beta amyloid (1-40) and (1-42) were amine-coupled on different surfaces of a CM5 biosensor chip to a level of <20 resonance units (as used for Table 10B). The antibodies were diluted down in HBS-EP buffer and passed over the biosensor/beta-amyloid surface at concentrations ranging from 1 nM-64 nM (as used for Table 10B).
(§2) In both methods, regeneration was via a pulse of 100 mM H₃PO₄, and for Table 10A data also followed by a pulse of 50 mM NaOH. […] All runs were double referenced against buffer blank injections. Analysis was carried out using the Biacore™ analysis software BIAevaluation version 4.1.
On the technique in general: In SPR one partner is held on a chip, and binding of the other changes the refractive index at the surface.

Experiment [2] concerns the target T1, human Aβ peptide (1-40) biotinylated at …. The experiment is described as follows: Aβ binding ELISA with culture supernatant, Aβ peptide (1-40). Background: In an ELISA, binding on a coated surface is turned into a signal by an enzyme label.
Experiment [3] shares this target. The experiment is described as follows: Aβ binding ELISA, human Aβ (1-40) biotinylated at the C terminus.
For experiment [4], the target named is T2, human Aβ peptide (length not stated) (human, UniProt P05067 672-711).
T2 construct: also called β-amyloid in solution
Kind of experiment: competition ELISA, β-amyloid in solution pre-incubated with the antibody; competitor: immobilised mouse 2E7; Experiment 1. How it is done:
(§3) 2) β-amyloid in solution; a constant concentration of β-amyloid was pre-incubated with a dilution series of humanised 2E7 antibody variants—the mixture including complexed and free amyloid was added for a short time to wells containing immobilised mouse 2E7 MAb. The amount of free β-amyloid that was still available for binding the immobilised parental 2E7 MAb was then detected.

In experiment [5] the target is T2, human Aβ peptide (length not stated). The experiment is described as follows: competition ELISA, β-amyloid in solution pre-incubated with the antibody; competitor: immobilised mouse 2E7; Experiment 2. The method, then:
as §3

Experiment [6] has as its target T3, human beta-amyloid peptide (1-42) (human, UniProt P05067 672-713).
T3 construct: domain: beta-amyloid peptide (1-42); Unlabelled peptide: amine-coupled to a CM5 chip (Method A(ii)) or in solution as analyte (Method B); also called beta-amyloid (1-42)
Kind of experiment: SPR Biacore 3000, Method A(ii): β-amyloid amine-coupled to CM5 chip, antibody 1-64 nM as analyte. The method, then:
as §1, §2

The target of experiment [7] is T4, human beta-amyloid peptide (1-40) (human, UniProt P05067 672-711).
T4 construct: domain: beta-amyloid peptide (1-40); Unlabelled peptide: amine-coupled to a CM5 chip (Method A(ii)) or in solution as analyte (Method B); also called beta-amyloid (1-40)
The description is as above. How it is done: as §1, §2

Experiment [8] has as its target T1, human Aβ peptide (1-40) biotinylated at …. Kind of experiment: Aβ binding ELISA, human Aβ (1-40) biotinylated at the C terminus. This is another data set of the same source.
Experiment [9] shares this target. Kind of experiment: SPR Biacore 3000, Method A(i): C-terminally biotinylated β-amyloid 1-40 on streptavidin chip, antibody as analyte; Run 2. How it is done:
as §1, §2

Experiment [10] has the same target. Kind of experiment: competition ELISA, biotinylated human Aβ (1-40) on streptavidin plate; competitor: mouse 2E7 at constant concentration; Experiment 2. The method, then:
(§4) Two types of competition ELISA were established in order to compare the Aβ binding activity of the three humanised variants compared to the 2E7 chimeric antibody. 1) Immobilised β-amyloid; biotinylated human Aβ peptide (1-40) was immobilized through Streptavidin on ELISA plates Mouse 2E7 antibody was added at a constant concentration along with a dilution series of 2E7-derived humanised variant antibodies. Bound mouse 2E7 MAb was then detected with anti-mouse IgG conjugate.

For experiment [11] the target is unchanged. Kind of experiment: Aβ binding ELISA, human Aβ (1-40) biotinylated at the C terminus. The source holds these as a separate data set.
Experiment [12] shares this target. Kind of experiment: SPR Biacore 3000, Method A(i): C-terminally biotinylated β-amyloid 1-40 on streptavidin chip, antibody as analyte; Run 1. How it is done: as §1, §2
The target in experiment [13] is T5, Peptide Aβ2-13, AEFRHDSGYEVHGSGK-biotin.
T5 construct: The range counts on the β-amyloid peptide; also called 2-13 peptide; β-amyloid peptide 2-13
T5 peptide: Ac-AEFRHDSGYEVHGSGK(Biotin)
Kind of experiment: Biacore, peptide on streptavidin chip. How it is done: (§5) In addition to the experiments described above, the Biacore™ 3000 optical biosensor was used to monitor the binding of 2E7 antibody to selected β-amyloid sequence derived peptides. Binding was measured by injecting test antibodies at up to 64 nM for 5 minute over peptides captured on separate streptavidin chip surfaces (130-230 RU (resonance units)). A running buffer (HBS-EP) containing 0.01 M HEPES pH7.4, 0.15 M NaCl, 3 mM EDTA and 0.005% Surfactant P20™ at 25° C. was used at a flow rate of 20 ul/min. All runs were double referenced against a blank streptavidin surface and blank injections. Analysis was carried out using the Biacore™ analysis software BIAevaluation™ version 4.1.
(§6) In a study similar to the epitope mapping study on 2E7 using the Surface Plasmon Resonance assay described above, H2L1 behaved similarly to 2E7 in binding to the peptide encompassing amino acids 1-12 (Aβ1, SEQ ID No:15) of the β-amyloid peptide and not to the peptide encompassing amino acids 2-13 of the β-amyloid peptide (Aβ2-13, SEQ ID No:44).

The target in experiment [14] is T4, human beta-amyloid peptide (1-40). The experiment is described as follows: SPR Biacore 3000, Method B: antibody captured on protein A surface, β-amyloid 4-500 nM as analyte; n = 3; peptide length not given. The method, then:
(§7) In the second instance the assay was reversed, in that antibodies were first captured to a level of 1000-2500 resonance units on an anti-mouse IgG polyclonal antibody surface (for recombinant mouse 2E7 MAb) or a protein A surface (for humanized H2L1) of a CM5 biosensor chip. Freshly prepared beta-amyloid (1-40) or (1-42) was diluted down in HBS-EP buffer and passed over the captured-antibody surface at concentrations ranging from 4-500 nM (Table 10C and 10D).
as §2

Experiment [15] concerns the target T1, human Aβ peptide (1-40) biotinylated at …. The experiment is described as follows: competition ELISA, biotinylated human Aβ (1-40) on streptavidin plate; competitor: mouse 2E7 at constant concentration; Experiment 1. How it is done:
as §4

In experiment [16] the target is T4, human beta-amyloid peptide (1-40). The experiment is described as follows: SPR Biacore 3000, Method B: antibody captured on anti-mouse IgG surface, β-amyloid 4-500 nM as analyte; n = 3; peptide length not given. The method, then: as §7, §2
The target of experiment [17] is T5, Peptide Aβ2-13, AEFRHDSGYEVHGSGK-biotin. Kind of experiment: Biacore 3000, peptide on streptavidin chip. How it is done:
as §5
In a separate experiment the β-amyloid 1-40 peptide was captured via its N-terminal aspartic acid residue that had been biotinylated. This peptide was captured onto a Biacore™ streptavidin coated chip as previously described. Antibody 2E7 injected at 66 nM for 1 minute could not bind this peptide. Therefore, it is concluded that the previously descibed N-terminal binding site was masked by the linker and capture method, thus further confirming the extreme N-terminus as containing the core binding site

Experiment [18] has as its target T6, Peptide APP1, AcNH-SEVKMDAEFRHDGSGK-biotin.
T6 construct: also called APP derived peptide APP1
T6 peptide: Ac-SEVKMDAEFRHDGSGK(Biotin)
Kind of experiment: Biacore, peptide on streptavidin chip. The method, then:
as §5, §6

Experiment [19] has as its target T7, Set (B) peptide encompassing amino acids 1-7 of the β-amyloid peptide, DAEFRHD--GSGGSGGSK-biotin.
T7 peptide: DAEFRHDGSGGSGGSK(Biotin)
Kind of experiment: SRU BIND biosensor, peptide set (B).

In experiment [20] the target is T8, Set (B) peptide encompassing amino acids 1-5 of the β-amyloid peptide, DAEFR--GSGGSGGSGSK-biotin.
T8 peptide: DAEFRGSGGSGGSGSK(Biotin)
Kind of experiment: SRU BIND biosensor, peptide set (B).

Experiment [21] has as its target T9, Set (B) peptide encompassing amino acids 1-6 of the β-amyloid peptide, DAEFRH--GSGGSGGSGK-biotin.
T9 peptide: DAEFRHGSGGSGGSGK(Biotin)
Kind of experiment: SRU BIND biosensor, peptide set (B).

T3 sequence (P05067 672-713 limits assumed): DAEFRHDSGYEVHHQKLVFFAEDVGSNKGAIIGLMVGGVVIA
T4 sequence (P05067 672-711 limits assumed): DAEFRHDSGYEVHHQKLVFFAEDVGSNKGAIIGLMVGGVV
T1 sequence (P05067 672-711 limits assumed): as above
T2 sequence (P05067 672-711): as the sequence (P05067 672-711 limits assumed) above

B1: Humanised 2E7 variant H2L1 (antibody, human IgG1, kappa, V domains shown)
VH: EVQLVESGGGLVQPGGSLRLSCAVSGFTFSDNGMAWVRQAPGKGLEWVSFISNLAYSIDYADTVTGRFTISRDNAKNSLYLQMNSLRAEDTAVYYCVSGTWFAYWGQGTLVTVSS
VL: DIVMTQSPLSLPVTPGEPASISCRVSQSLLHSNGYTYLHWYLQKPGQSPQLLIYKVSNRFSGVPDRFSGSGSGTDFTLKISRVEAEDVGVYYCSQTRHVPYTFGGGTKVEIKR
notes: Human IgG1 with L235A and G237A, human kappa; also called L1+H2; H2L1 whole IgG
By Kd is commonly meant the constant that tells how readily two partners part at equilibrium. In general, EC50 refers to the concentration giving half of the maximal effect. Lower therefore signals a more potent agent. What is called IC50 is the concentration at which inhibition is half-maximal. Higher therefore signals lower potency. As a reminder, the koff is the rate constant with which the complex falls apart. Lower therefore signals a long-lived complex. One may read the kon as the second-order rate constant of association. Read a low kon as slow association. With B1, the Kd worked out at 0.054 nM in [1]; 0.456 nM in experiment [6]; 0.366 nM in experiment [7]; 0.0498 nM in experiment [9]; 0.0581 nM in [12]; 7.32 nM in experiment [14]. Further, the EC50 in experiment [2] amounted to 0.113 mg/L; in experiment [3], 0.048 mg/L; in [8], 0.044 mg/L; in experiment [11], 0.041 mg/L. For the same molecule, the IC50 came to 0.075 mg/L in experiment [4], 0.119 mg/L in experiment [5], 1.66 mg/L in experiment [10] and 1.28 mg/L in experiment [15]. The koff amounted to 0.000155 s⁻¹ in experiment [6], 0.000122 s⁻¹ in [7] and 0.00075 s⁻¹ in experiment [14]. Also, the association rate constant (kon) came to 340000 M⁻¹ s⁻¹ in experiment [6], 333000 M⁻¹ s⁻¹ in [7] and 106000 M⁻¹ s⁻¹ in [14]. Also, in experiment [13], the binding result was “no binding”.

B2: Mouse monoclonal antibody 2E7 (antibody, mouse IgG2a, V domains shown)
VH: EVKLVESGGGLVQPGGSLKLSCAVSGFTFSDNGMAWVRQAPRKGPEWIAFISNLAYSIDYADTVTGRFTISRDNAKNTLYLEMSSLRSEDTAMYYCVSGTWFAYWGQGTLVTVSA
VL: DVVLTQTPLSLPVSLGDQASISCRVSQSLLHSNGYTYLHWYLQKPGQSPKLLIYKVSNRFSGVPDRFSGSGSGTDFTLKISRVEAEDLGVYFCSQTRHVPYTFGGGTKLEIK
notes: Murine IgG2a heavy chain, murine kappa light chain; also called 2E7 MAb; parental mouse 2E7 MAb
As for B2, the Kd in experiment [1] worked out at 0.0361 nM; in experiment [6] it was 0.394 nM; in experiment [7] it was 0.317 nM; in experiment [16] it was 1.58 nM; in experiment [9], 0.0338 nM; in [12], 0.0383 nM. For the same molecule, the values for the koff in experiment [6], in [7] and in [16] were 0.000151 s⁻¹, 0.000128 s⁻¹ and 0.000428 s⁻¹, respectively. The kon in experiment [6] was determined as 382000 M⁻¹ s⁻¹; in [7] it was 405000 M⁻¹ s⁻¹; in experiment [16], 283000 M⁻¹ s⁻¹. The binding result in experiment [17] is “no binding (tested: up to 64 nM)”; in [18], “no binding”; in [19], “binds”; in experiment [20] it was “binds”; in experiment [21] it was “binds”.
